This passage reports Ki results from publication PMC10063552.

Holding throughout (assay): enzyme inhibition assay (cleavage of a chromogenic substrate, fit to Morrison's tight binding equation); MMP-2ACT (0.6 nM), MMP-9CAT (3 nM) or MMP-14CAT (1 nM) incubated with 0-25 nM N-TIMP2 variant in 50 mM HEPES, 10 mM CaCl2, 0.05% Brij-35, 1 mM DTNB, pH 7.5, 1 h at 37 °C; then 100 µM chromogenic substrate, absorbance at 412 nm at 37 °C; Ki from three independent experiments

Experiment [1] addresses activated MMP-2 (MMP-2ACT) (human).
In experiment [2] the target is human MMP-14 catalytic domain (MMP-14CAT) (human) (UniProt P50281).
In experiment [3] the target is human MMP-9 catalytic domain (MMP-9CAT) (human) (UniProt P14780).

As usually defined, the Ki is the dissociation constant of the complex between target and ligand, obtained from inhibition or displacement. Regarding “N-TIMP2-L100DOPA (from UniProt P16035 27-153) (domain or fragment)”, the Ki in experiment [1] was 1 nM; in experiment [2] it was 14.2 nM; in experiment [3], 0.849 nM.

Turning to “N-TIMP2-S2DOPA (from UniProt P16035 27-153) (domain or fragment)”, the Ki in experiment [1] came out at 3.14 nM; in experiment [2], 14.6 nM; in experiment [3], 0.623 nM.

Turning to “N-TIMP2-Y36HqAla (from UniProt P16035 27-153) (domain or fragment)”, the Ki in experiment [1] worked out at 0.413 nM; in experiment [2], 4.72 nM; in experiment [3], 0.543 nM.

Regarding “N-TIMP2-S2HqAla (from UniProt P16035 27-153) (domain or fragment)”, the Ki in experiment [1] was determined as 97.7 nM; in experiment [2], 97.7 nM; in experiment [3] it was 70.4 nM.

“N-TIMP2-A70HqAla (from UniProt P16035 27-153) (domain or fragment)”: the Ki in experiment [1] amounted to 16.7 nM; in experiment [2], 27.2 nM; in experiment [3], 1.93 nM.

In the case of “N-TIMP2-S69DOPA (from UniProt P16035 27-153) (domain or fragment)”, the Ki in experiment [1] is 0.46 nM; in experiment [2] it was 21.4 nM; in experiment [3], 0.468 nM.

For “N-TIMP2-S69HqAla (from UniProt P16035 27-153) (domain or fragment)”, the Ki in experiment [1] was 0.606 nM; in experiment [2] it was 11.5 nM; in experiment [3] it was 0.449 nM.

“N-TIMP2-A70DOPA (from UniProt P16035 27-153) (domain or fragment)”: the Ki in experiment [1] stood at 0.785 nM; in experiment [2], 10.6 nM; in experiment [3], 0.452 nM.
